Source: patent publication US11160869B2 (priority 2019, dated 2021)

Assays:
[1] = Purification process trains with S-650F cation exchange: yield, recovery, purity, endotoxin
Experimental: Refolding was carried out at 4° C. in a refolding solution containing 1 mM reduced glutathione, 0.5 mM oxidized glutathione, 1M Arginine-HC, 250 mM sucrose, 100 mM Tris pH 8.5 at 4° C., and 2 mM EDTA. […] Buffer A for the CHT bind/elute step in Table 56 may also comprise 25 mM Tris, pH7.5, 300 mM NaCl, 5.0 mM NaPi, 0.5 mM CaCl2. Columns used are described in Table 58.
The yield, recovery, and purity of the IL-10 delivery construct was assess after each step, and after each process train.
It was surprising that a cation exchange resin was useful in the purification of the IL-10 delivery construct as cation exchange resins are negatively charged, and thus bind to proteins with a positive charge. Here, the IL-10 delivery construct has a calculated isoelectric point (pI) of 5.49, and thus is anticipated to have a negative charge under conditions traditionally used in a cation exchange chromatography.

[2] = test system: DSS-induced colitis; test: DSS-induced colitis dose-response (0.3, 3, 10, 30 mg/kg): in-life, necropsy, histology; type: in vivo, C57BL6/J mice
Experimental: DSS-induction of murine colitis was performed by Bolder BioPATH, Inc. (CO, USA). Female C57BL6/J mice (8-10 weeks old) were given 2.5% dextran sodium sulfate (w/v) (Spectrum, Lot #2DC0020) ad libitum in the drinking water from day 0 through day 7. On day 7, DSS was replaced with water, and the animals were maintained until day 10.
Colon histology was scored based on inflammation, gland loss, erosion and hyperplasia (max of 5 each), and these were totaled in the summary score. […] Five additional parameters (edema, neutrophil infiltration, mucosal thickness, lymphoid aggregate and lymphoid aggregate size) were also quantified. […] These histological results thus indicate a mild degree of local drug efficacy.

[3] = test system: IL-1Ra; test: Single oral capsule dose in NHP: plasma IL-1Ra; type: in vivo, Macaca fascicularis
Experimental: The purpose of the IL-1Ra assay was to measure endogenous IL-1Ra in NHP plasma. The antibody pair in this sandwich immunoassay reacted with both human and NHP IL-1Ra. Samples were quantitated using an 8-point standard curve prepared from a human IL-1Ra calibrator (ranging from 5.5-4021 pg/mL, plus 0 pg/mL). Biotinylated anti-NHP IL-1Ra capture antibody was added to a MSD Small Spot Streptavidin plate and incubated for an hour at RT with shaking. Controls that represent low ([…]), mid ([…]) and high concentrations (3245 pg/mL) were prepared in pooled plasma, Standards (Calibrator 9 Blend) were prepared in Diluent 43 (MSD Cat No R50AG), and samples diluted 10 fold in Diluent 43. Standards, controls and diluted samples were added to the assay plate, and the plate incubated for 2 hours at room temperature with shaking. The plate was washed 3 times with PBST, and 1× SULFO TAG anti-IL-1Ra Antibody added to the plate. The plate was incubated for 1 hour at room temperature with shaking. Following a wash step, 2×MSD Read buffer was added to the wells of the plate, and the plate read using the MSD Sector Imager 600 plate reader. The lower limit of detection of each analyte is defined as 2.5 standard deviation above background.
IL-10 delivery construct dosing at multiple fixed doses in non-naïve adult male Macaca fascicularis was conducted by Valley Biosystems (West Sacramento, Calif.). […] Dosing groups are described in TABLE 45.

[4] = test system: enterocytes and lamina propria cells; test: Vesicular trafficking during apical to basal transcytosis (Rab7, Rab11, LMAN1, LAMP1), rat jejunum; type: in vivo
Experimental: Immunofluorescence microscopy images of rat jejunum were obtained following a 50 uL intraluminal injection of an IL-10 delivery construct prepared in PBS at ˜40 uM. For FIGS. 129-133: arrow=apical (luminal) epithelial membrane; dashed line=epithelial cell-basement membrane demarcation; 1-p=lamina propria; G=goblet cell. Cell nuclei stained with DAPI (blue).
The timing of LMAN1 redistribution to the basal compartment coincides with the presence of hIL-10 being ultimately detected in non-polarized cells within the lamina propria where it was not associated with LMAN1.
Ultimately, the delivery construct is delivered to lysosome-like structures within a large fraction of cells within the lamina propria, an outcome that would limit its systemic distribution following A-B transcytosis.

[5] = test system: CD3+ cells and F4/80 macrophages; test: Cellular target in lamina propria after oral gavage (CD3, F4/80, pSTAT3); type: in vivo, mouse; settings: 40 min after oral gavage
[6] = Control: Capto Q ImpRes, CHT gradient B/E (Table 59)
[7] = Control: Capto Q, CHT (Linear elution), based on historical data (Table 60)
[8] = PT1: Capto Q, S-650F, CHT (FT mode) (Table 60)
[9] = PT2: Capto Q ImpRes, CHT step B/E 80 mM NaPi, S-650F (Table 59)
[10] = PT2: Capto Q, CHT (Step elution), S-650F (Table 60)
[11] = PT3: S-650F, Capto Q, CHT (FT mode) (Table 60)

B1: IL-10 delivery construct: recombinant homodimeric fusion protein: N-terminal methionine, cholix386 domain, polyGlySer spacer, recombinant human IL-10 (protein)
chain: MVEEALNIFDECRSPCSLTPEPGKPIQSKLSIPSDVVLDEGVLYYSMTINDEQNDIKDEDKGESIITIGEFATVRATRHYVNQDAPFGVIHLDITTENGTKTYSYNRKEGEFAINWLVPIGEDSPASIKISVDELDQQRNIIEVPKLYSIDLDNQTLEQWKTQGNVSFSVTRPEHNIAISWPSVSYKAAQKEGSRHKRWAHWHTGLALCWLVPMDAIYNYITQQNCTLGDNWFGGSYETVAGTPKVITVKQGIEQKPVEQRIHFSKGNAMSALAAHRVCGVPLETLARSRKPRDLTDDLSCAYQAQNIVSLFVATRILFSHLDSVFTLNLDEQEPEVAERLSDLRRINENNPGMVTQVLTVARQIYNDYVTHHPGLTPEQTSAGAQAGGGGSGGGGSGGGGSPGQGTQSENSCTHFPGNLPNMLRDLRDAFSRVKTFFQMKDQLDNLLLKESLLEDFKGYLGCQALSEMIQFYLEEVMPQAENQDPDIKAHVNSLGENLKTLRLRLRRCHRFLPCENKSKAVEQVKNAFNKLQEKGIYKAMSEFDIFINYIEAYMTMKIRN
modifications: homodimer
For B1, the Purity [1, 6] was 78.2, the Yield [1, 6] was 68 mg and the Endotoxin [1, 7] was “*8 EU/mg”. The Purity [1, 7] was “*85%”, the Endotoxin [1, 8] was 8.9 EU/mg and the Purity [1, 8] was 92%. It also gave a Purity [1, 9] of 78.5%, a Yield [1, 9] of 26 mg and an Endotoxin [1, 10] of 5 EU/mg. For the same molecule, the Purity [1, 10] was 91%, the Endotoxin [1, 11] was 0.4 EU/mg and the Purity [1, 11] was 96%. For the same molecule, the “edema width, mucosal thickness, hyperplasia in the mid region” value ([2]; 30 mg/kg, relative to Vehicle) was “significantly improved”, the colon length ([2]; 10 and 30 mg/kg, p<0.05 vs vehicle) was “Significant improvement in colon length” and the DSS-induced weight loss ([2]; construct 30 mg/kg, CsA 75 mg/kg, q.d. oral) was “significantly reduced DSS-induced weight loss”. For the same molecule, the “summed histology score (inflammation, gland loss, erosion, hyperplasia)” value ([2]; mouse, in vivo) was “did not reveal any significant improvements”, the “plasma IL-1Ra Cmax” value ([3]; 82 mg, oral) was 26,367 pg/mL and the “time of plasma IL-1Ra Cmax” value ([3]; 82 mg, oral) was 3 hours post-dose. For the same molecule, the “time by which plasma IL-1Ra returned to baseline” value ([3]; all dose groups) was no more than 24 h, the “plasma IL-1Ra and IFN-γ after oral enteric-coated capsules” value ([3]; compared with intravenous administration) was “increased IL-1Ra without significant induction of IFN-γ” and the “co-localization with LMAN1” value ([4]; 1-15 min) was “co-localized with redistributing LMAN1”. For the same molecule, the “co-localization with LAMP1 in polarized enterocytes” value ([4]; 1 min post ILI, not increasing over 15 min) was “Limited LAMP1/delivery construct co-localizations”, the “co-localization with LAMP1 in non-polarized cells within the lamina propria” value ([4]; 10 min and 15 min post ILI) was “extensive LAMP1/delivery construct co-localizations” and the “co-localization with Rab7+ vesicles in enterocytes” value ([4]; rat, in vivo) was “predominantly in the apical vesicular compartment”. For the same molecule, the “co-localization with Rab11+ vesicles in enterocytes” value ([4]; rat, in vivo) was “mostly in the basal vesicular compartment”, the “time course of completion of A-B transcytosis” value ([4]; rat, in vivo) was 10 to 15 min and the “co-localization of pSTAT3 with CD3+ cells” value [5] was “A moderate proportion of CD3+ cells”. The “co-localization of pSTAT3 with F4/80 macrophages” value [5] was “extensive co-localization with pSTAT3”.
